Target: mouse teneurin-3 A1B1 complete extracellular domain (ECD, residues 342-2715) (mouse) (UniProt Q9WTS6)
Experiment: SEC-MALS; purified ECD, 0.5 mg/mL in 20 mM HEPES pH 7.8, 150 mM NaCl, 2 mM CaCl2, Superose6 Increase 10/300 GL; also SDS-PAGE with or without beta-mercaptoethanol; covalent (disulphide-linked) dimer

- stoichiometry N: 2
Substance: mouse teneurin-3 A1B1 complete extracellular domain (ECD, residues 342-2715), Q9WTS6-1 342-2715
